PMC3985653, “A bacteriophage transcription regulator inhibits bacterial transcription initiation by σ-factor displacement”

Tests used:
[1] = target: T1, P7-sensitive core RNA polymerase (P7SE; hybrid E. coli core with Xo beta' N-terminus NLFN);sigma70 (Escherichia coli (397c cells, …, UniProt P0A7Z4;P0A8V2;Q2NZX9;P0A800;P00579 1-329;1-1342;1-10+P0A8T7:11-1407;2-91;1-613, internal_change|); test: KMnO4 footprinting; conditions: protein: recombinant;recombinant; tags: C-6His on beta';N-6His-HMK in 32P-labelled experiments; unlabelled form purified separately; chain copies: 2;1;1;1;1; label: 5'-32P on one strand; blunt
[2] = target: T1, P7-sensitive core RNA polymerase (P7SE; …); test: EMSA; no P7; heparin-resistant open complex; conditions: protein: recombinant;recombinant; tags: C-6His on beta';N-6His-HMK in 32P-labelled experiments; unlabelled form purified separately; chain copies: 2;1;1;1;1; blunt

B1: T5 N25 promoter [-65 to +35] (dsDNA)
DNA 1: TCTTTGCTCAAAGAATCATAAAAAATTTATTTGCTTTCAGGAAAATTTTTCTGTATAATAGATTCATAAATTTGAGAGAGGAGTTTAAATATGGCTGGTTC
DNA 2: GAACCAGCCATATTTAAACTCCTCTCTCAAATTTATGAATCTATTATACAGAAAAATTTTCCTGAAAGCAAATAAATTTTTTATGATTCTTTGAGCAAAGA
binding result [1]: binds

B2: lacUV5 promoter [-64 to +36] (dsDNA)
DNA 1: GTTAGCTCACTCATTAGGCACCCCAGGCTTTACACTTTATGCTTCCGGCTCGTATAATGTGTGGAATTGTGAGCGGATAACAATTTCACACAGGAAACAG
DNA 2: CTGTTTCCTGTGTGAAATTGTTATCCGCTCACAATTCCACACATTATACGAGCCGGAAGCATAAAGTGTAAAGCCTGGGGTGCCTAATGAGTGAGCTAAC
binding result [2]: binds
